Source: patent CN117820471A (VAZYME MEDICAL CO LTD; HUNAN NOVAZYME MEDICAL TECH CO LTD, dated 2024)

How the values were obtained:
[1] = biological target: T1, GFAP-His重组蛋白 (Homo sapiens (Human), UniProt P14136 1-432); assay: chemiluminescence sandwich assay on GFAP-His (Rabbit anti-GFAP mAb on magnetic beads, test antibody labelled with acridinium ester)
T1 construct: Recombinant GFAP expressed in 293F cells; also called GFAP-His蛋白; Glial fibrillary acidic protein

[2] = biological target: T1, GFAP-His重组蛋白; assay: fixed capture antibody in the sandwich ELISA that detects GFAP-His

T1 sequence (P14136 other isoform, or with tags, fused parts or gaps limits assumed): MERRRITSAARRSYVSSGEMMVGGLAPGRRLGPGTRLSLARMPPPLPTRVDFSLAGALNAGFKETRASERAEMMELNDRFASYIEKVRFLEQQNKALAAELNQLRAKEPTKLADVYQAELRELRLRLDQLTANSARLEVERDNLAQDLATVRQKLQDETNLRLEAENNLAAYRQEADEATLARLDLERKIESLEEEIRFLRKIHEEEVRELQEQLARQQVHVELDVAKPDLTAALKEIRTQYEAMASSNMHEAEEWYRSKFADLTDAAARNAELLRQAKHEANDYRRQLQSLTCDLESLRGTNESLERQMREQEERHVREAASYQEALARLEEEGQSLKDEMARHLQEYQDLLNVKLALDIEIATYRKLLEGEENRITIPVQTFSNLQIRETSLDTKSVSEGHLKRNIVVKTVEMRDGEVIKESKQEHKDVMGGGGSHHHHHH

B1: Anti-GFAP-rRmab-1 (antibody, V domains shown)
VH: QSLEESGGRLVTPGTPLTLTCTSSGFSLSSYYIQWVRQAPGKGLEWIGIIYASGSTYYASWAKGRFTISKTSATVDLKITSPTQEDTATYFCARNDYDSNLIMSIWGPGTLVTVSS
VL: AYDMTQTPASMEVAVGGTVTINCQASQNIGSSLAWYQQKPGQRPKLLIYRASTLASGVPSRFSGSGSGTEFTLTISGLQCDDAATYYCQQHFSIGAVQNVFGGGTEVVVR
notes: the rabbit constant regions are not; It was labelled with acridinium ester in the chemiluminescence sandwich assay; also called GFAP特异性抗体; 优选抗体
B1: binds [1].

B2: Rabbit anti-GFAP mAb (antibody, V domains shown)
VH: QSLEESGGRLVTPGGSLTLTCTVSGIDLTTYTMTWVRQAPGKGLEWIGIISGSGTTYYASWAKGRFTISKTSTTVDLKITSPTTEDTATYFCARDLYGSSDIYNIWGPGTLVTVST
VL: DIVMTQTPASVSAAVGGTVTINCQASESIRNYLSWYQQKPGQPPKLLIFDASTLASGVSSRFKGSGSGTEFTLTISDLECADAATYYCQTYYGVSGFGNAFGGGTEVVVK
notes: Rabbit monoclonal antibody developed earlier, used as the fixed capture antibody (coated on the plate or on magnetic beads) in the sandwich assays; also called 包被抗体; 与之配对的抗体
B2: binds [2].
